Experimental data from patent publication US20230071371A1 (Scripps Research, published 2023).
Read-outs that look alike come from different tables or passages of the source. Bridges are numbered along the chain shown (N, C = ends). Where no end group is shown, it is not given here. [ ]: non-standard residue; d: D form. hArg = N=C(N)NCCCC[C@H](N)C(=O)O; β3hR = N=C(N)NCCC[C@H](N)CC(=O)O; Nle = CCCC[C@H](N)C(=O)O; L1 = not defined here; L3 = not defined here; L4 = not defined here; L5 = not defined here

How the values were obtained:
GPR10 [1] = target: T1, GPR10 (UniProt P49683 1-370, limits assumed); assay: cell-based or functional assay
T1 sequence (looked up): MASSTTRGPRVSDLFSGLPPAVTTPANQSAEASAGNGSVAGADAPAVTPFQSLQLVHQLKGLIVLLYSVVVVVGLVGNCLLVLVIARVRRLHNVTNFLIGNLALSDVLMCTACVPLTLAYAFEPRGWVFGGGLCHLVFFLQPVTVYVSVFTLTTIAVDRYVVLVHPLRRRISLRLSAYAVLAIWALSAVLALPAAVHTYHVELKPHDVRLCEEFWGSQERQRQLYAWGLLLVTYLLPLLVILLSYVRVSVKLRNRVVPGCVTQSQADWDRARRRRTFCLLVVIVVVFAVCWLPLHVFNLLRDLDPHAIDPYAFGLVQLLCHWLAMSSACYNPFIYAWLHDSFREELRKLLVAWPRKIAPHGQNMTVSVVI

GPR10 [2] = target: T1, GPR10; assay: cell-based or functional assay; remark: listed apart in the source

Row | Binder | GPR10 EC50 (GPR10 [1]) | GPR10 EC50 (GPR10 [2])
1 | SRAHQHSMETRTCDINPAWCTGRGIRPVGRF-NH2 (linker 13-20 via L5; reading uncertain) [Conjugate 241] | 1500 nM | 
2 | SRAHQCS[Nle]ETRTCDINPAWYTG[β3hR]GIRPVGRF-NH2 (linker 6-13 via L1; reading uncertain) [Conjugate 252] |  | 16 nM
3 | SRAHQHSMETRTPDINPAWCTGRGIRCVGRF-NH2 (cysteine pairing not given here) [SEQ ID NO 96] | 920 nM | 
4 | CRAHQHSCETRTPDINPAWYTGRGIRPVGRF-NH2 (linker 1-8 via L5; reading uncertain) [Conjugate 235] | 330 nM | 
5 | SRAHQHSMETRTPDICPAWYTGCGIRPVGRF-NH2 (linker 16-23 via L1; reading uncertain) [Conjugate 230] | 29 nM | 
6 | SRAHQHSMETRTPDINPAWCTGRGIRCVGRF-NH2 (linker 20-27 via L1; reading uncertain) [Conjugate 232] | 130 nM | 
7 | SRAHQHSMETRTPDINPCWYTGRGCRPVGRF-NH2 (linker 18-25 via L3; reading uncertain) [Conjugate 248] | 7.5 nM | 
8 | SRAHQHSMETRTPDINPCWYTGRGCRPVGRF-NH2 (linker 18-25 via L5; reading uncertain) [Conjugate 250] | > 1000 nM | 
9 | SRAHQCS[Nle]ETRTCDINPAWYTG[β3hR]GIRPVGRF-NH2 (linker 6-13 via L3; reading uncertain) [Conjugate 256] |  | 5.1 nM
10 | SRAHQHSMETRTPDICPAWYTGCGIRPVGRF-NH2 (cysteine pairing not given here) [SEQ ID NO 94] | 70 nM | 
11 | SRAHQHSMETRTPDINPCWYTGRGCRPVGRF-NH2 (linker 18-25 via L1; reading uncertain) [Conjugate 231] | 18 nM | 
12 | SRAHQHSMCTRTPDICPAWYTGRGIRPVGRF-NH2 (cysteine pairing not given here) [SEQ ID NO 91] | 41 nM | 
13 | SRAHQHSMETRTPDINPCWYTGRGCRPVGRF-NH2 (cysteine pairing not given here) [SEQ ID NO 95] | 33 nM | 
14 | SRAHQHSMETRTPDICPAWYTGCGIRPVGRF-NH2 (linker 16-23 via L3; reading uncertain) [Conjugate 245] | 23 nM | 
15 | SRAHQCS[Nle]ETRTCDINPAWYTG[β3hR]GIRPVGRF-NH2 (cysteine pairing not given here) [SEQ ID NO 98] |  | 13 nM
16 | SRAHQCS[Nle]ETRTCDINPAWYTG[hArg]GIRPVGRF-NH2 (cysteine pairing not given here) [SEQ ID NO 97] |  | 17 nM

Row | Binder | GPR10 EC50 (GPR10 [1]) | GPR10 EC50 (GPR10 [2])
17 | CRAHQHSCETRTPDINPAWYTGRGIRPVGRF-NH2 (linker 1-8 via L3; reading uncertain) [Conjugate 233] | 17 nM | 
18 | SRAHQHSMETRTCDINPAWCTGRGIRPVGRF-NH2 (linker 13-20 via L3; reading uncertain) [Conjugate 239] | 17 nM | 
19 | SRAHQHSMETRTPDCNPAWYTCRGIRPVGRF-NH2 (linker 15-22 via L3; reading uncertain) [Conjugate 242] | 6.1 nM | 
20 | SRAHQHSMETRTPDICPAWYTGCGIRPVGRF-NH2 (linker 16-23 via L4; reading uncertain) [Conjugate 246] | 360 nM | 
21 | SRAHQHSMETRTCDINPAWCTGRGIRPVGRF-NH2 (linker 13-20 via L1; reading uncertain) [Conjugate 228] | 40 nM | 
22 | SRAHQHSMETRTPDCNPAWYTCRGIRPVGRF-NH2 (linker 15-22 via L5; reading uncertain) [Conjugate 244] | 230 nM | 
23 | SRAHQHSMETRTCDINPAWCTGRGIRPVGRF-NH2 (cysteine pairing not given here) [SEQ ID NO 92] | 18 nM | 
24 | SRAHQHSMETRTPDINPCWYTGRGCRPVGRF-NH2 (linker 18-25 via L4; reading uncertain) [Conjugate 249] | > 1000 nM | 
25 | SRAHQHSMETRTPDCNPAWYTCRGIRPVGRF-NH2 (cysteine pairing not given here) [SEQ ID NO 93] | 17 nM | 
26 | SRAHQHSMCTRTPDICPAWYTGRGIRPVGRF-NH2 (linker 9-16 via L1; reading uncertain) [Conjugate 227] | 85 nM | 
27 | SRAHQHSMETRTPDICPAWYTGCGIRPVGRF-NH2 (linker 16-23 via L5; reading uncertain) [Conjugate 247] | 2800 nM | 
28 | CRAHQHSCETRTPDINPAWYTGRGIRPVGRF-NH2 (linker 1-8 via L4; reading uncertain) [Conjugate 234] | 230 nM | 
29 | SRAHQHSMETRTCDINPAWCTGRGIRPVGRF-NH2 (linker 13-20 via L4; reading uncertain) [Conjugate 240] | 630 nM | 
30 | SRAHQHSMETRTPDCNPAWYTCRGIRPVGRF-NH2 (linker 15-22 via L1; reading uncertain) [Conjugate 229] | 10 nM | 
31 | SRAHQHSMETRTPDCNPAWYTCRGIRPVGRF-NH2 (linker 15-22 via L4; reading uncertain) [Conjugate 243] | 80 nM | 
